The source of these data is the Immune Epitope Database (IEDB).

pIC50: −log10 of the molar value. A value given as a limit tells only on which side of the number the result lay.

For assay [1], the target named is HLA-A*02:06. The assay can be described thus: IEDB peptide-MHC binding, purified MHC/competitive/radioactivity; ≥ and ≤ were set here for values at or beyond the usual limits of such assays. To be noted: source organism: Vaccinia virus WR.
Another assay deals with HLA-A*02:03. The assay is described as above.
Assay [2] concerns the target HLA-A*68:02. The assay can be described thus: IEDB peptide-MHC binding, cellular MHC/competitive/fluorescence; ≥ and ≤ were set here for values at or beyond the usual limits of such assays. To be noted: source organism: Vaccinia virus WR.
Assay [3] has as its target HLA-A*02:01. The assay is described as above. Conditions: source organism: Vaccinia virus WR.
The next assay deals with HLA-A*02:02. The assay is described as above.
Assay [4] deals with HLA-A*68:02. The assay can be described thus: IEDB peptide-MHC binding, purified MHC/competitive/radioactivity; ≥ and ≤ were set here for values at or beyond the usual limits of such assays.
For assay [5], the target named is HLA-A*02:01. The assay is described as above.
In assay [6] the target is HLA-A*02:06. The assay can be described thus: IEDB peptide-MHC binding, cellular MHC/competitive/fluorescence; ≥ and ≤ were set here for values at or beyond the usual limits of such assays.
Where [7] appears, read: source organism: Vaccinia virus WR.
Setting [8] is: source organism: Influenza A virus.

In general, pIC50 refers to −log10 of the IC50, conventionally taken in molar units. IVQSVLRDI: the pIC50 with HLA-A*02:06 [1] was 5.88; in the assay with HLA-A*02:03 (setting [7]), 7.00; in the assay with HLA-A*68:02 [2] it was 4.32; with HLA-A*02:01 [3], 4.33; in the assay with HLA-A*02:02 (setting [7]), not above 4.15.
For the sequence KINNNRIVAM, the pIC50 in the assay with HLA-A*02:06 [1] is 5.50; with HLA-A*02:03 (setting [7]) it was 5.89; in the assay with HLA-A*68:02 [2], 4.64; in the assay with HLA-A*02:01 [3], 4.63; with HLA-A*02:02 (setting [7]) it was 5.04.
The like results for KTPLYYLSGT were, in that order, 5.85, 5.51, 4.46, 4.35 and 4.66.
As for KTRLFRSPQV, the pIC50 was 6.36 with HLA-A*02:06 [1]; 6.01 with HLA-A*02:03 (setting [7]); 5.21 in the assay with HLA-A*68:02 [2]; 5.15 with HLA-A*02:01 [3]; 5.03 in the assay with HLA-A*02:02 (setting [7]).
As to LTKDRKMLEL, the pIC50 is 5.32 with HLA-A*68:02 [4] (setting [7]); 5.46 with HLA-A*02:01 [5] (setting [7]); 6.88 with HLA-A*02:03 (setting [7]); 4.68 with HLA-A*02:06 [6] (setting [7]); 5.11 with HLA-A*02:02 (setting [7]).
Turning to LTQVKELGIA, the negative-log IC50 (pIC50) with HLA-A*02:06 [1] is 7.74; with HLA-A*02:03 (setting [7]), 6.82; in the assay with HLA-A*68:02 [2], 4.87; in the assay with HLA-A*02:01 [3] it was 4.41; in the assay with HLA-A*02:02 (setting [7]) it was 4.93.
LVQYRILPM: the pIC50 with HLA-A*02:06 [1] is 5.33; with HLA-A*02:03 (setting [7]), 5.93; in the assay with HLA-A*68:02 [2], 4.23; with HLA-A*02:01 [3] it was 4.46; with HLA-A*02:02 (setting [7]) it was 4.83.
As for NIKPVIVPDI, the negative logarithm of the IC50 (pIC50) is 6.02 in the assay with HLA-A*02:06 [1]; 6.13 with HLA-A*02:03 (setting [7]); 5.02 in the assay with HLA-A*68:02 [2]; not above 4.15 with HLA-A*02:01 [3]; 4.99 in the assay with HLA-A*02:02 (setting [7]).
As to NTITTFIPI, the negative-log IC50 (pIC50) was 8.92 with HLA-A*68:02 [4] (setting [7]); 6.07 in the assay with HLA-A*02:01 [5] (setting [7]); 6.01 in the assay with HLA-A*02:03 (setting [7]); 5.11 with HLA-A*02:06 [6] (setting [7]); 4.81 with HLA-A*02:02 (setting [7]).
QQLCTMERT: the negative-log IC50 (pIC50) is 6.03 with HLA-A*02:06 [1]; 5.34 in the assay with HLA-A*02:03 (setting [7]); not above 4.15 with HLA-A*68:02 [2]; 4.33 with HLA-A*02:01 [3]; not above 4.15 with HLA-A*02:02 (setting [7]).
Consider QVKELGIAI, for which the pIC50 with HLA-A*02:06 [1] was 5.43; in the assay with HLA-A*02:03 (setting [7]), 6.05; in the assay with HLA-A*68:02 [2], 5.12; in the assay with HLA-A*02:01 [3] it was 4.97; with HLA-A*02:02 (setting [7]) it was 5.04.
As to RTWKVLSIM, the pIC50 with HLA-A*68:02 [4] (setting [7]) was 5.38; with HLA-A*02:01 [5] (setting [7]), 6.08; with HLA-A*02:03 (setting [7]) it was 5.58; in the assay with HLA-A*02:06 [6] (setting [7]), 4.47; with HLA-A*02:02 (setting [7]), 4.72.
In the case of SIGFEARIV, the negative-log IC50 (pIC50) in the assay with HLA-A*02:06 [1] is 5.88; in the assay with HLA-A*02:03 (setting [7]), 6.24; in the assay with HLA-A*68:02 [2], 4.72; in the assay with HLA-A*02:01 [3], 5.14; with HLA-A*02:02 (setting [7]), 4.99.
For TQVKELGIA, the pIC50 in the assay with HLA-A*02:06 [1] was 7.25; with HLA-A*02:03 (setting [7]) it was 7.28; with HLA-A*68:02 [2], 4.63; with HLA-A*02:01 [3] it was 4.91; with HLA-A*02:02 (setting [7]), 5.14.
As for VAMLLTHGA, the pIC50 in the assay with HLA-A*02:06 [1] was 6.14; in the assay with HLA-A*02:03 (setting [7]), 6.20; in the assay with HLA-A*68:02 [2], 5.02; in the assay with HLA-A*02:01 [3], 5.05; with HLA-A*02:02 (setting [7]) it was 5.14.
For VNPTLLFLKV, the pIC50 with HLA-A*68:02 [4] (setting [8]) is 7.62; in the assay with HLA-A*02:01 [5] (setting [8]), 5.43; with HLA-A*02:03 (setting [8]), 5.55; with HLA-A*02:06 [6] (setting [8]), 4.78; in the assay with HLA-A*02:02 (setting [8]), 5.20.
As to VTDKTAYIGT, the pIC50 was 6.64 in the assay with HLA-A*02:06 [1]; 5.40 with HLA-A*02:03 (setting [7]); 5.19 in the assay with HLA-A*68:02 [2]; 5.18 with HLA-A*02:01 [3]; 4.66 in the assay with HLA-A*02:02 (setting [7]).
The like results for YVILKDPRIA were, in that order, 5.72, 6.45, 4.72, 4.40 and 5.22.
